In patent CN113735969A (INST MILITARY MEDICINE ACADEMY MILITARY SCIENCES PLA, dated 2021):

Columns and labels:
SARS-CoV-2 WT RBD蛋白 = SARS-CoV-2 WT RBD蛋白 (SARS-CoV-2, UniProt P0DTC2 319-541)
SARS-CoV-2野生型病毒的S蛋白 = SARS-CoV-2野生型病毒的S蛋白 (SARS-CoV-2, UniProt P0DTC2 14-1273); assay: cell-based or functional assay

B1: 全人源抗SARS-CoV-2单克隆抗体ZWD12 (antibody, V domains shown)
VH: EVQLVESGGGLVQPGGTLRLSCVASGFSFSNYWMSWVRQAPGKGLEWVANIKQDGSETHYVDSVKGRFTISRDNAKNSLYLQMNSLRADDTAVYFCVKDRTDWELIRGYFGHWGQGTQITVSS
VL: DIVMTQTPSSLSLSPGDRATLSCRASENIINYLAWYQQRPGQSPRLLIYDASNRATGIPARFSGSGSGTDFTLTISSLEPEDFAVYYCQQRIIWPPYTFGQGTKVDIKR
Kd (SARS-CoV-2 WT RBD蛋白): 0.356 nM
koff (SARS-CoV-2 WT RBD蛋白): 0.000167 s⁻¹
kon (SARS-CoV-2 WT RBD蛋白): 468000 M⁻¹ s⁻¹
假病毒中和 EC50 (luciferase, HEK293T cells) (SARS-CoV-2野生型病毒的S蛋白): 0.00586 µg/mL
真病毒中和 EC50 (Vero E6 cells, crystal violet) (SARS-CoV-2野生型病毒的S蛋白): 0.103 µg/mL
